The values that follow come from PMC8538552.

This assay has as its target protein A from Staphylococcus aureus (Staphylococcus aureus) (UniProt P38507). As to the kind of experiment: fluorescence intensity of the solution left after immobilization (plate reader); solutions used for functionalization with FITC antibody analysed after the immobilization process on substrate with and without protein A; VICTOR3 plate reader; calibration curve to quantify the antibody that remained in solution.

“CD4 (VIT4)-FITC mouse anti-human antibody (Miltenyi Biotec)” gave a percent of the starting antibody solution immobilised of under 60%.
